According to US12202905B2, “Methods and compositions relating to adenosine receptors” (Twist Bioscience Corporation, priority 2021, dated 2025):
Positions count from the first letter of the chain named. Names may count otherwise.

B1: A2A-31: A2AR variant; VH CDR1-3 SEQ ID NO 36/125/214 (antibody, V domains shown)
VH: EVQLVESGGGLVKPGGSLRLSCAASGYLFTDYNMNWVRQAPGKGLEWVGWIYPGTGNTYNDSVKGRFTISRDNSKNTLYLQMNSLRAEDTAVYYCTALYYGSSWERYFDVWGQGTLVTVSS
VL: DIQMTQSPSSLSASVGDRVTITCRASQSISDYLNWYQQKPGKAPKLLIYGASPRESGVPSRFSGSGSGTDFTLTISSLQPEDFATYYCQQDNIWPYTFGQGTKLEIK
B2: A2A-19: A2AR variant; VH CDR1-3 SEQ ID NO 24/113/202 (antibody, V domains shown)
VH: EVQLVESGGGLVKPGGSLRLSCAASGFTFSGYAMNWVRQAPGKGLEWVSTISGSGASTYYADSVKGRFTISRDNSKNTLYLQMNSLRAEDTAVYYCAAARGYKRWRLGRRYDYWGQGTLVTVSS
VL: DIQMTQSPSSLSASVGDRVTITCRASQSISDYLNWYQQKPGKAPKLLIYTASTLQSGVPSRFSGSGSGTDFTLTISSLQPEDFATYYCEQSYSTPWTFGGGTKLEIK
B3: A2A-27: A2AR variant; VH CDR1-3 SEQ ID NO 32/121/210 (antibody, V domains shown)
VH: B2 VH with G31S, N35A, T50A, A56G, Y60F, K103W, G108W
VL: B2 VL with S30G, D31S, T50G, T53N, E89Q, S91G, T94A, W96R
B4: A2A-26: A2AR variant; VH CDR1-3 SEQ ID NO 31/120/209 (antibody, V domains shown)
VH: B2 VH with V5L, K13Q, G31T, N35G, T50G, G55A, A56G, Y102H, K103W
VL: B2 VL with S28T, D31R, T50S, E89Q, W96H, L104V
B5: A2A-53: A2AR variant; VH CDR1-3 SEQ ID NO 58/147/236 (antibody, V domains shown)
VH: EVQLVESGGGLVKPGGSLRLSCAASGFNIIDDYMHWVRQAPGKGLEWVGMITDTGEPTDADSVKGRFTISRDNSKNTLYLQMNSLRAEDTAVYYCVYDYIYAMDYWGQGTLVTVSS
VL: DIQMTQSPSSLSASVGDRVTITCKASQNMGSNVAWYQQKPGKAPKLLIYSASHRSSGVPSRFSGSGSGTDFTLTISSLQPEDFATYYCQQWNYPRITFGQGTKLEIK
B6: A2A-17: A2AR variant; VH CDR1-3 SEQ ID NO 22/111/200 (antibody, V domains shown)
VH: EVQLVESGGGLVKPGGSLRLSCAASGFNIGNTYMHWFRQAPGKGLEWVGVINPNYGTTRYNDSVKGRFTISRDNSKNTLYLQMNSLRAEDTAVYYCARDYGSSSFDYWGQGTLVTVSS
VL: DIQMTQSPSSLSASVGDRVTITCKASQSVRNDVVWYQQKPGKAPKLLIYRGNTLRPGVPSRFSGSGSGTDFTLTISSLQPEDFATYYCQQYYGIPLTFGQGTKLEIK
B7: A2A-24: A2AR variant; VH CDR1-3 SEQ ID NO 29/118/207 (antibody, V domains shown)
VH: B6 VH
VL: B6 VL
B8: A2A-51: A2AR variant; VH CDR1-3 SEQ ID NO 56/145/234 (antibody, V domains shown)
VH: EVQLVESGGGLVKPGGSLRLSCAASGYTFNDYYINWVRQAPGKGLEWVGDINPNNGANIYNDSVKGRFTISRDNSKNTLYLQMNSLRAEDTAVYYCARNYGSSYYALDYWGQGTLVTVSS
VL: DIQMTQSPSSLSASVGDRVTITCSASSSLSYMHWYQQKPGKAPKLLIYGASPRESGVPSRFSGSGSGTDFTLTISSLQPEDFATYYCRQMSSYPPTFGQGTKLEIK

How the values were obtained:
[1] = target: T1, A2AR (Homo sapiens, UniProt P29274); experiment: T cell activation assay (PBMCs, NECA, anti-CD3ε/CD28 beads, IFN-γ release); type: cell-based; design: endogenous in cells; host or cells: PBMCs; details: for T cell activation: NECA 1 μM, IFN-γ release
T1 sequence (P29274 whole entry): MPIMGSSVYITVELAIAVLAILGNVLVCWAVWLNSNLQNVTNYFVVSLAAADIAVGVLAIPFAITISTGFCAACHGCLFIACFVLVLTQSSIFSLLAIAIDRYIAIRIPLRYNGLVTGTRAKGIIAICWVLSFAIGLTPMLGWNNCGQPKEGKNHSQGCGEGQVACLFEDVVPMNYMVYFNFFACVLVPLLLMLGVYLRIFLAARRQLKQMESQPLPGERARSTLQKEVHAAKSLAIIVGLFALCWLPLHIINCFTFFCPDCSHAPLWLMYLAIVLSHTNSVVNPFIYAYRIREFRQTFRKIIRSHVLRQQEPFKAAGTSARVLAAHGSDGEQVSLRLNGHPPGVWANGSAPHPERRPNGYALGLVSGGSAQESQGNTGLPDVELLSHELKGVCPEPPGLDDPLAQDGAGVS
Description: The cells were then activated by magnetic beads coating with anti-CD3ε/CD28 antibodies. Three days after incubation, the supernatant was collected for detecting IFN-γ release and evaluating T cell activation. ZM-241385 is potent and used as a selective small molecule A2A antagonist control.
A primary T-cell activation assay was performed as described above. Data is seen in FIG. 33D and Table 21.

[2] = target: T1, A2AR; experiment: A2AR cell functional cAMP assays (allosteric and antagonistic); details: NECA titration, IgG titration (NECA 0.5 uM), IgG titration (NECA 10 uM)
Description: Allosteric and Antagonistic cAMP Assays were Performed Using A2A Cell Lines

[3] = target: T2, A2b (Homo sapiens, UniProt P29275); experiment: A2b functional antagonistic cAMP assay (CHO-K1 cells); type: cell-based; details: IgG 3× titration from 1000 nM, NECA 5 nM
T2 construct: expressed in transfected cells; host or cells: CHO-K1
T2 sequence (P29275 1-332): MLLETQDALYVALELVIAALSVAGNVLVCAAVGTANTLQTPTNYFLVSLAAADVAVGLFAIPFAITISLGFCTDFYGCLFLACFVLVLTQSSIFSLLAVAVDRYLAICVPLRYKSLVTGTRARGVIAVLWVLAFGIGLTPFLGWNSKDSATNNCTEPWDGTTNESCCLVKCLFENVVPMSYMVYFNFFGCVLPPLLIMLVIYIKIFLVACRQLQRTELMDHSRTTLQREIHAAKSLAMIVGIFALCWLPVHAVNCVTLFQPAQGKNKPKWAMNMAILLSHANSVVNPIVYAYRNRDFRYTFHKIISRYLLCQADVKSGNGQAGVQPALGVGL
Description: FIG. 46 depicts the functional cAMP assay performed on selected A2b antibodies. CHO-K1 cells were incubated with an A2b antibody. Next, the cells were stimulated using NECA. Activation of A2b was monitored based on 3′-5′-cyclic adenosine monophosphate (cAMP) production in the cell lines.
First, cells were pre-incubated with A2A-17, A2A-19, A2A-26, A2A-27, A2A-35, A2A-36, and A2A-83 at a 3× titration starting at 100 nM. […] The results are depicted in FIGS. 47B-47C.
An antagonistic cAMP assay at high levels of IgC and low ligand levels was performed. Cells were pre-incubated with A2A-17, A2A-19, A2A-26, A2A-27, A2A-35, A2A-36, A2A-83, and A2A-72 at a 3× titration starting at 1000 nM. […] The results are depicted in FIG. 47D. […] Properties of A2b are depicted in Table 23.

[4] = system: human colon carcinoma (Colo205); experiment: In vivo colon carcinoma model, tumor volume; details: mice with Colo205, tumor volume over 30 days
Description: Mice with human colon carcinoma (Colo205) were divided into 4 groups. Group 1 was the isotype control, Group 2 mice were treated with Anti-PD1, Group 3 mice were treated with variant A2A-77 and Group 4 mice were treated with variant A2A-81. Tumor volume is measured over 30 days. Results are depicted in FIGS. 34A-34D.
Additional studies were performed with mice treated with 10 mg/kg variant A2A-51 (Group 5), A2A-28 (Group 6), Ab7/PD1TAO15 (Group 7), and AZD4635 (Group 8). Mice were also treated with 20 mg/kg according to the schedule in FIG. 34E. Data is seen in FIGS. 34F-34K.

Molecule | T cell activation [1] | function in cAMP assays [2] | further results
B1 | T cell activation was observed |  | 
B2 |  | improved function | 
B3 |  | improved function | A2a/A2b antagonist properties [3]: A2a antagonist that cross links with A2b, while also being an A2b antagonist
B4 |  | improved function | 
B5 | T cell activation was observed |  | 
B6 |  | improved function | 
B7 |  | improved function | 
B8 | T cell activation was observed |  | tumor size / tumor volume [4]: ability to reduce tumor volume; T cell activation with more (high) NECA ([1]; high NECA): still works well
